In paper PMC10495264 (Nature Cell Biology, 2023):

Assays:
TORC1 [1] = molecular target: T1, TORC1 (Saccharomyces cerevisiae, UniProt P35169); assay: MST binding affinity assays with fluorescent TORC1 (GFP–Tor1)
T1 construct: made in house; host or cells: S. cerevisiae strain NIC005 ([RL170-2c] LEU2:GFP-TOR1)

TORC1 [2] = molecular target: T1, TORC1; assay: as above; conditions: for Kd: purified yeast proteins, GFP–Tor1-containing TORC1 7.5 nM, 30 °C, mean ± s.d., n = 3, read-out: Kd (binding to TORC1, MST); for Fraction bound transformed (MST, TORC1 target): Fig. 6d,e
Procedure: The MST experiments were performed using a Monolith NT.115 (Nanotemper Technologies). Purification of TORC1 containing the N-terminally GFP-tagged Tor1 subunit was carried out as described previously. For the protein–protein interaction experiments, GFP–Tor1-containing TORC1 (7.5 nM) was mixed with a series of twofold dilutions (a total of 16 samples) of Acc1 (highest concentration, 80 nM) or Fas1 (highest concentration, 20 nM) purified from yeast through TAP-tag immuno-enrichment with rabbit IgG-coated magnetic beads and subsequent TEV cleavage in elution buffer (50 mM HEPES NaOH pH 7.5 and 150 mM NaCl) for 1 h at 18 °C. The samples were loaded into Monolith NT.115 capillaries and MST measurements were performed using 80% laser power and medium MST power setting at 30 °C. For the small molecule–protein interaction experiments, GFP–Tor1-containing TORC1 (7.5 nM) was mixed with a series of twofold dilutions (a total of 16 samples) of Mal-CoA (M4263, Sigma-Aldrich; highest concentration, 5 mM) dissolved in 50 mM HEPES pH 7.5. The samples were loaded into Monolith NT.115 capillaries and MST measurements were performed using 80% laser power and medium MST power setting at 30 °C. The experiments were performed in triplicate and data were fitted using the Kd model of the MO.Affinity Analysis software (Nanotemper Technologies). The signal-to-noise ratio represents the response amplitude divided by the noise of the measurement. The Kd value was obtained by plotting the bound fraction against the log-transformed ligand concentration.

yeast cells = assay: Drop spot growth assays on rapamycin and/or cerulenin plates; format: cell-based, Saccharomyces cerevisiae; conditions: low / sublethal doses combined
Procedure: Yeast cells (Saccharomyces cerevisiae) were cultured in liquid SC medium (1.7 g l^−1 yeast nitrogen base (cat. no. 1545, CONDA), 5 g l^−1 ammonium sulfate (cat. no. 4808211, MP Biomedicals), 20 g l^−1 glucose (cat. no. 1422, AppliChem), 2 g l^−1 amino acid dropout –His (D9520, US Biological) and 35 mg l^−1 histidine (A1341, AppliChem) at 30 °C to the exponential growth phase, unless otherwise stated in the figure legends. All yeast strains used in this study are listed in Supplementary Table 1.

[3] = molecular target: TORC1 containing the N-terminally GFP-tagged Tor1 subunit (Saccharomyces cerevisiae) (UniProt P35169); assay: MST; GFP–Tor1-containing TORC1 (7.5 nM) as fluorescent target, 16 twofold dilutions of Acc1 (highest 80 nM) or Fas1 (highest 20 nM); 50 mM HEPES NaOH pH 7.5, 150 mM NaCl; 30 °C; Monolith NT.115
[4] = tested on: intracellular TAG and palmitate (C16:0) levels; assay: TAG and palmitate (C16:0) measurements by LC-HRMS; format: cell-based, human; conditions: ED Fig. 5t; compared with BSA
Procedure: The intracellular levels of TAGs and palmitate (C16:0) were determined using liquid chromatography-high resolution mass spectrometry-based analysis. Briefly, cells were seeded in 10-cm dishes and treated as described in the ‘Mammalian cell culture treatments’ section. The cells were scraped in medium and collected by centrifugation (400g, 3 min). The pellets were then washed three times with 1 ml ice-cold PBS, snap frozen in liquid nitrogen and kept at −80 °C until further processing.
The samples were vortexed for 10 s immediately after the addition of the extraction buffer and then incubated for 30 min on an orbital shaker at 4 °C. The proteins were pelleted by centrifugation (10 min, 21,000g, 4 °C) and the supernatants were transferred to a clean 2-ml tube. […]
The lipid pellets were resuspended in 200 µl ultra-performance liquid chromatography (UPLC)-grade acetonitrile:isopropanol 70:30 (vol/vol). […] In both cases, the analysed mass range was in the range of m/z 150–1,500. […]
All samples were analysed in a randomized run order. […] For measurements of intracellular TAG abundance (Extended Data Fig. 5r), the sum of all values corresponding to the peak areas for the different individual TAGs was calculated for each sample.

[5] = titrated protein 4.88281e-9 M, Fig. 6d,e
[6] = titrated protein 3.90625e-8 M, Fig. 6d,e
[7] = titrated protein 1.5625e-7 M, Fig. 6d,e

T1 sequence (P35169 whole entry): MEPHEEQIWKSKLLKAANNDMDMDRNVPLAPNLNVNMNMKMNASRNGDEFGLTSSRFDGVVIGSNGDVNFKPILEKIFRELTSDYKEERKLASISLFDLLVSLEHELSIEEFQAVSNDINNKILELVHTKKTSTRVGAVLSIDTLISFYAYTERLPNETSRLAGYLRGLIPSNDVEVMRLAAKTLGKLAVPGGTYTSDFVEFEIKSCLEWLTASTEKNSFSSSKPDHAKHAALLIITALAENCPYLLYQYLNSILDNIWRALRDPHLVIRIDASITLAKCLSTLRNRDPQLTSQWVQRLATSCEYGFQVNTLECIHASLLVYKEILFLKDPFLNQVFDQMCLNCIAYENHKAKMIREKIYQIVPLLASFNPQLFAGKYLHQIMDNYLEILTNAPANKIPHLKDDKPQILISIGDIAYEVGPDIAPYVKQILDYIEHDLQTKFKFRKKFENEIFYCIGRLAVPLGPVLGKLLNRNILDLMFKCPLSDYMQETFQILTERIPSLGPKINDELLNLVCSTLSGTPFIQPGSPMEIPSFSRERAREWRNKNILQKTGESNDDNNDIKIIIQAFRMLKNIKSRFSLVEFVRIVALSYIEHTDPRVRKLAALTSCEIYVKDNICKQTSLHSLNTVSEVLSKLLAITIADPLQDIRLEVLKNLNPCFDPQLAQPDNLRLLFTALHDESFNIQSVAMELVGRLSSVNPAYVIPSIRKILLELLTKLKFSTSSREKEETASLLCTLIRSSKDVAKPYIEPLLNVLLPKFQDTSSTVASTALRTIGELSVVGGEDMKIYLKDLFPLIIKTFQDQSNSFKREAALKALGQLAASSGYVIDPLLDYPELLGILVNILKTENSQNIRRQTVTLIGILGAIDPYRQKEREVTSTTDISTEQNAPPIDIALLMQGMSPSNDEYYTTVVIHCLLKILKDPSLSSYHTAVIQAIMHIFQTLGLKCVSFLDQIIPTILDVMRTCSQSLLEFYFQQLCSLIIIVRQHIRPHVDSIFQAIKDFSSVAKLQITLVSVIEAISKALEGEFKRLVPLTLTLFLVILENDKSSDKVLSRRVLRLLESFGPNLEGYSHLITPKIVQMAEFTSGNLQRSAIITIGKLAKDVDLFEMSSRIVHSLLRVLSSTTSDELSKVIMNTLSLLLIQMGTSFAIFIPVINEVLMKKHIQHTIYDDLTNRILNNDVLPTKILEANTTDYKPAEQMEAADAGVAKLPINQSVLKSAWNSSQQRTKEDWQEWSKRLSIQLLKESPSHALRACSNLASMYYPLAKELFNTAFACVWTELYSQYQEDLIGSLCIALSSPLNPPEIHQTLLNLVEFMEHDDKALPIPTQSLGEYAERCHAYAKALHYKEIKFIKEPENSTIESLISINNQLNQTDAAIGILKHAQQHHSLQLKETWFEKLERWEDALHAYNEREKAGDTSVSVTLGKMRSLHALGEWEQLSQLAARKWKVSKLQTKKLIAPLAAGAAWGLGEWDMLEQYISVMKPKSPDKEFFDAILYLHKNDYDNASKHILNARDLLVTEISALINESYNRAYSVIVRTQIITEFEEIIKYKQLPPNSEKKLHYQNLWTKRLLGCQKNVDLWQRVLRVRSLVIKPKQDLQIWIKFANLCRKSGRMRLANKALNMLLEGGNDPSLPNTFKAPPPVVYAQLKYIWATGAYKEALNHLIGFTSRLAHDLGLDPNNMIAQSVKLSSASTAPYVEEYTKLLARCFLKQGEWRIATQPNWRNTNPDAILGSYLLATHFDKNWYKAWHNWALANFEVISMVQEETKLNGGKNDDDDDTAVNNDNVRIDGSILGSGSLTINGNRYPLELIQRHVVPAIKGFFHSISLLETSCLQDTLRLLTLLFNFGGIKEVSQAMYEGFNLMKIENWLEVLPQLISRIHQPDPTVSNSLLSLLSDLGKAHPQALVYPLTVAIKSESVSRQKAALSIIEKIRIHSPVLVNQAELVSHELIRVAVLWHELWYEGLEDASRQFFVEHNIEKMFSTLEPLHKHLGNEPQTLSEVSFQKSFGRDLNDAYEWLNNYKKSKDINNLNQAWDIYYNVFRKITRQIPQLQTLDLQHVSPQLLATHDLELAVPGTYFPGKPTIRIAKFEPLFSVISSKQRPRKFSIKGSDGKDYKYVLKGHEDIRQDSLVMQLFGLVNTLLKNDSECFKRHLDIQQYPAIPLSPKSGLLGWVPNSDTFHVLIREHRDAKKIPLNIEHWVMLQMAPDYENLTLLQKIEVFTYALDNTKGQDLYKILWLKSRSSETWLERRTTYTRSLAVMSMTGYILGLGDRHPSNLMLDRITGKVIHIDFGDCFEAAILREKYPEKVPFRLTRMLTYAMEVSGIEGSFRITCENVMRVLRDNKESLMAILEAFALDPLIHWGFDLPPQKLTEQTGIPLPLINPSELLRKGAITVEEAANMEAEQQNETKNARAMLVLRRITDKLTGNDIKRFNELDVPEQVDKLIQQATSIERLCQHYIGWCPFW
T1 sequence (Q08921 whole entry partner): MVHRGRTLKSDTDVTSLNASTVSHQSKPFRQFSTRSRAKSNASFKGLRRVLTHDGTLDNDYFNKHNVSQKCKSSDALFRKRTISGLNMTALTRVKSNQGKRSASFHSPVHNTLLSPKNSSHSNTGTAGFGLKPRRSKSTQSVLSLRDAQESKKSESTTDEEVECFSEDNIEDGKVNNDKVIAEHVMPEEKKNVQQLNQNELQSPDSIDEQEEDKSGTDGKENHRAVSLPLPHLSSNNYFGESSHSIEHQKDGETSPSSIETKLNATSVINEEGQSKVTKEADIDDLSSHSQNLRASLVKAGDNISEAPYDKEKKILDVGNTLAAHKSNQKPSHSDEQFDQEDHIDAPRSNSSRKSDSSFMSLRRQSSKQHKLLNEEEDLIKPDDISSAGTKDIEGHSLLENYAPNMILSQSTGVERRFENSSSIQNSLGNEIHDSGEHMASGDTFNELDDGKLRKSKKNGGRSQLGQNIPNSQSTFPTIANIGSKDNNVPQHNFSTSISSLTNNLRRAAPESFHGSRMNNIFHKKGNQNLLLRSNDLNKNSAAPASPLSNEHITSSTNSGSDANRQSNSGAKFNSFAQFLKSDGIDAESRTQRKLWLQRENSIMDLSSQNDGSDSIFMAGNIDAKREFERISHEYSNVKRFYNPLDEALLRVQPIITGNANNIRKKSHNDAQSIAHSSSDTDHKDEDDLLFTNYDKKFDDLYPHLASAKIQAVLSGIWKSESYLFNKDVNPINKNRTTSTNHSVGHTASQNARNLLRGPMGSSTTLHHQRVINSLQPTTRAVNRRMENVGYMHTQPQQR
T1 sequence (P38873 whole entry partner): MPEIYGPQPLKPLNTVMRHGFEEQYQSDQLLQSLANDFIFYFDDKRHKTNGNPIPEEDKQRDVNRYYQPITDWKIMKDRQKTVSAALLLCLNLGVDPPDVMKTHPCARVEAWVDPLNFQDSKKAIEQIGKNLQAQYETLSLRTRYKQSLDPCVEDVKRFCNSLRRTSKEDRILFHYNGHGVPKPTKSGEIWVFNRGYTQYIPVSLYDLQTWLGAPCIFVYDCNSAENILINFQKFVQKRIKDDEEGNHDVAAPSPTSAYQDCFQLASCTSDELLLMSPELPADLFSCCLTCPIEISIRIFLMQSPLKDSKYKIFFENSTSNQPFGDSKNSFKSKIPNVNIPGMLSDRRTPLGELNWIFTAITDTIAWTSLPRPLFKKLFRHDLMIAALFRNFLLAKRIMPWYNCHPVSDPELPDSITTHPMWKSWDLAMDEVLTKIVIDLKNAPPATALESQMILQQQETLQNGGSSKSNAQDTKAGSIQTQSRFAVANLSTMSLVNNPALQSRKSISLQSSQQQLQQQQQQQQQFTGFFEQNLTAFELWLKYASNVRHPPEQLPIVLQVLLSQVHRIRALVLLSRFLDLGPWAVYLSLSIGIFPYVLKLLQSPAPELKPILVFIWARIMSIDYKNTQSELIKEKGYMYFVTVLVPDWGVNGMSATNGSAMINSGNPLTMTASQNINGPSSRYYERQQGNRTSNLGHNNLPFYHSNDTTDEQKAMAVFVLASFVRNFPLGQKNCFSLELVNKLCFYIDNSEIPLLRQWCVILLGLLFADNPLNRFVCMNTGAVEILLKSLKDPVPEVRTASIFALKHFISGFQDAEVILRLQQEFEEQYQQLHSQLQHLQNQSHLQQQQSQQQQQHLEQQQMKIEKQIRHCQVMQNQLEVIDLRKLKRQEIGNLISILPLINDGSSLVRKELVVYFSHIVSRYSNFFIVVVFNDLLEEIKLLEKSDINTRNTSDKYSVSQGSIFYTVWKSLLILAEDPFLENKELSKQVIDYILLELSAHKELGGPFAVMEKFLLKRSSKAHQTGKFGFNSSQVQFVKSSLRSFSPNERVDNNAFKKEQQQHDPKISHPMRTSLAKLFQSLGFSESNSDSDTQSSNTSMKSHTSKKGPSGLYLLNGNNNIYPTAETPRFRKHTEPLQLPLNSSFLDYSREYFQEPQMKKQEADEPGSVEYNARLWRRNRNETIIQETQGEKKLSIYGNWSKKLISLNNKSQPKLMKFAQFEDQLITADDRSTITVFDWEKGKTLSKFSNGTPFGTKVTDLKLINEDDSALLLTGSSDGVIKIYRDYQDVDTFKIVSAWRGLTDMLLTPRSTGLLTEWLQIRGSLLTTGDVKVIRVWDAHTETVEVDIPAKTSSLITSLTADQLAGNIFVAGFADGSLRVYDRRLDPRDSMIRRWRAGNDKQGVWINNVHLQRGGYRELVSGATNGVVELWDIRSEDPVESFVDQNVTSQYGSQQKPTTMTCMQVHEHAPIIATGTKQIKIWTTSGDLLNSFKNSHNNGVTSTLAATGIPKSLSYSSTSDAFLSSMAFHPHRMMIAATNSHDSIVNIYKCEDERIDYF
T1 sequence (P41318 whole entry partner): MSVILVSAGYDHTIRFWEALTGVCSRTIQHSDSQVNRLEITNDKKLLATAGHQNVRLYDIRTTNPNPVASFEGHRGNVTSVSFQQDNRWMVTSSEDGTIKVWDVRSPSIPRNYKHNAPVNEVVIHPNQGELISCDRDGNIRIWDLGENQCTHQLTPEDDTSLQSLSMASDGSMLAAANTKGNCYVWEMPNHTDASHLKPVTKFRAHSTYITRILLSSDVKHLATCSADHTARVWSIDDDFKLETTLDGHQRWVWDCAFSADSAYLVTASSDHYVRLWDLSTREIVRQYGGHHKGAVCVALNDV

| Compound | Fraction bound transformed (MST, TORC1 target) (TORC1 [1]; [5]) | Fraction bound transformed (MST, TORC1 target) (TORC1 [1]; [6]) | Fraction bound transformed (MST, TORC1 target) (TORC1 [1]; [7]) | Kd (TORC1 [2]) [nM] | Fraction bound transformed (MST, TORC1 target) (TORC1 [2]; titrated protein 2.44141e-9 M) | Fraction bound transformed (MST, TORC1 target) (TORC1 [2]; titrated protein 9.76563e-9 M) | Fraction bound transformed (MST, TORC1 target) (TORC1 [2]; titrated protein 1.95313e-8 M) | Fraction bound transformed (MST, TORC1 target) (TORC1 [2]; titrated protein 7.8125e-8 M) | Fraction bound transformed (MST, TORC1 target) (TORC1 [2]; titrated protein 3.125e-7 M) | Fraction bound transformed (MST, TORC1 target) (TORC1 [2]; titrated protein 6.25e-7 M) | Fraction bound transformed (MST, TORC1 target) (TORC1 [2]; titrated protein 1.25e-6 M) | Fraction bound transformed (MST, TORC1 target) (TORC1 [2]; titrated protein 2.5e-6 M) | Fraction bound transformed (MST, TORC1 target) (TORC1 [2]; titrated protein 5e-6 M) | Fraction bound transformed (MST, TORC1 target) (TORC1 [2]; titrated protein 1e-5 M) | Fraction bound transformed (MST, TORC1 target) (TORC1 [2]; titrated protein 2e-5 M) | Kd [3] [nM] | further results |
| --- | --- | --- | --- | --- | --- | --- | --- | --- | --- | --- | --- | --- | --- | --- | --- | --- | --- |
| Fas1: yeast FA synthase subunit purified from yeast through TAP-tag immuno-enrichment | 0.2698 | 0.7564 | 0.5063 | 23.7 ± 15.4 | 0.1633 | 0.4832 | 0.1917 | 0.6873 | 0.978 | 1.128 | 1.25 | 1.151 | 0.8443 | 0.9239 | 0.8697 |  | Fraction bound transformed (MST, TORC1 target) (TORC1 [1]; titrated protein 1.2207E-09 M, Fig. 6e): -0.03697; Fraction bound transformed (MST, TORC1 target) (TORC1 [1]; titrated protein 6.1035E-10 M, Fig. 6e): -0.1692 |
| Acc1: yeast acetyl-CoA carboxylase purified from yeast through TAP-tag immuno-enrichment | 0.03811 | 0.4481 | 0.735 | 49.1 ± 28.3 | 0.1107 | -0.03249 | 0.3896 | 0.8094 | 0.5572 | 0.7617 | 0.8055 | 0.9274 | 1.054 | 1.011 | 0.9376 |  | Fraction bound transformed (MST, TORC1 target) (TORC1 [2]; titrated protein 4e-5 M): 1.262; Fraction bound transformed (MST, TORC1 target) (TORC1 [2]; titrated protein 8e-5 M): 1.2067 |
| CO[C@H]1C[C@@H]2CC[C@@H](C)[C@@](O)(O2)C(=O)C(=O)N2CCCC[C@H]2C(=O)O[C@H]([C@H](C)C[C@@H]2CC[C@@H](O)[C@H](OC)C2)CC(=O)[C@H](C)/C=C(\C)[C@@H](O)[C@@H](OC)C(=O)[C@H](C)C[C@H](C)/C=C/C=C/C=C/1C [rapamycin] |  |  |  |  |  |  |  |  |  |  |  |  |  |  |  |  | combined effect of rapamycin and cerulenin on yeast growth (yeast cells): additive effect |
| Fas1 purified from yeast (from UniProt P07149 1-2051) (enzyme) |  |  |  |  |  |  |  |  |  |  |  |  |  |  |  | 23.7 |  |
| Acc1 purified from yeast (from UniProt Q00955 1-2233) (enzyme) |  |  |  |  |  |  |  |  |  |  |  |  |  |  |  | 49.1 |  |
| BSA-C16:0 |  |  |  |  |  |  |  |  |  |  |  |  |  |  |  |  | C16:0 (peak area), Mean [4]: 531779 |
